Our source for the IC50 and Kd values is patent US6183967, “Nucleic acid ligand inhibitors to DNA polymerases” (NeXstar Pharmaceuticals).

Where a chain is given by its changes, count along the chain named.

In series [1] the target is T1, Taq DNA polymerase (Thermus aquaticus, UniProt P19821 P19821:1-832). As to the kind of experiment: inhibition; 45C. As to conditions: tags: rTaq, 94 kDa, Roche Molecular Systems; label: end-labeled. As for the experimental part:
(§1) As set forth in Table 12, the $IT50$ values of truncated ligands TQH6-Tr, TQH22-Tr and TQH28-Tr were decreased by 5–9° C. upon truncation.
(§2) Measurement of $IC50$ Values. $IC50$ values (the concentration of inhibitor required to produce 50% of the product in the assay) were obtained using hairpin extension assays. In a typical inhibition assay, a 20 μL reaction contained either 0.25 (0.04) pmoles of Taq polymerase (5 U) (1 U), 0.125 pmoles of Tth polymerase (2.5 U) or 0.05 pmoles of TZ05 polymerase (1 U), oligonucleotide inhibitor (at varying concentrations), […] dNTPs in either Tris or Tricine buffer (Taq and Tth pol) or TZ05 buffer (TZ05 pol). Gel purified, 5'-end-labeled hairpin DNA substrate (DNA-HP; 5'-[…]-3' (SEQ ID NO:6)) was then added to a final concentration of 250 nM and the reactions were incubated for a given time at the desired temperature as indicated in the figure legends (30 minutes for TZ05 pol). The reaction was stopped by adding 5 μL of 0.5 M EDTA (pH 8.0) followed by formamide gel loading buffer. Extension products were resolved on 10% polyacrylamide gels under denaturing conditions and quantitated by phosphorimager. The amount of products formed in the presence of inhibitor was normalized to the product formed in the absence of an inhibitor to obtain the percent of product.

The target of series [2] is T1, Taq DNA polymerase. As to the kind of experiment: FP filter; Tris buffer 55C; 5 pM at 40C; Tricine 9.4 (40C), 116 (55C) pM; IT50 52C. To be noted: tags: rTaq, 94 kDa, Roche Molecular Systems; label: end-labeled. The protocol:
(§3) Binding interactions of individual sequences with Taq polymerase was measured by nitrocellulose filter binding at 55° C. […] Clones 6 (SEQ ID NO:78), 22 (SEQ ID NO:81) and 28 (SEQ ID NO:87) all show high-affinity binding to Taq polymerase at 55° C. as characterized by their K_d values in the low picomolar range.
(§4) The binding analysis shown in FIGS. 4A–E were performed in the Tris buffer at 55° C. […] (Table 7).

In series [3] the target is T1, Taq DNA polymerase. Description: FP filter; 55C; IT50 52C. As to conditions: tags: rTaq, 94 kDa, Roche Molecular Systems; label: end-labeled.
The target of series [4] is T1, Taq DNA polymerase. Description: inhibition; 45C; IT50 56.1C. As to conditions: tags: rTaq, 94 kDa, Roche Molecular Systems; label: end-labeled. As for the experimental part: as §1, §2
The target in series [5] is T1, Taq DNA polymerase. As to the kind of experiment: FP filter; Tris buffer 55C; 3.8 pM at 40C; Tricine 5.6 (40C), 18 (55C) pM; IT50 56C. To be noted: tags: rTaq, 94 kDa, Roche Molecular Systems; label: end-labeled. As for the experimental part: as §3, §4
Series [6] deals with T1, Taq DNA polymerase. As to the kind of experiment: FP filter; 55C; IT50 41C. As to conditions: tags: rTaq, 94 kDa, Roche Molecular Systems; label: end-labeled.
Series [7] has as its target T1, Taq DNA polymerase. Description: FP filter; 55C; IT50 52.3C. As to conditions: tags: rTaq, 94 kDa, Roche Molecular Systems; label: end-labeled.
Series [8] deals with T1, Taq DNA polymerase. Description: FP filter; 55C; IT50 53.7C. As to conditions: tags: rTaq, 94 kDa, Roche Molecular Systems; label: end-labeled. The protocol: as §3
Series [9] addresses T1, Taq DNA polymerase. Description: FP filter; printed as >>1000; 55C; IT50 <40C. To be noted: tags: rTaq, 94 kDa, Roche Molecular Systems; label: end-labeled. The protocol: as §3
In series [10] the target is T1, Taq DNA polymerase. Description: FP filter; Tm 51C. As to conditions: tags: rTaq, 94 kDa, Roche Molecular Systems; stem-loop. The protocol: Room Temperature. To assess the affinity of oligonucleotide libraries and individual ligands the nitrocellulose filter binding technique was used. Briefly, gel-purified ^32P ss-DNA pools labeled at the 5' end were suspended in the binding buffer, heated to 80° C., chilled on ice and then brought to room temperature. The DNA (5–10 pM) was then incubated for 15 minutes at room temperature with varying amounts of the target polymerase in 50 µL of the appropriate binding buffer containing 0.1 µg of tRNA and 0.01% hSA. The DNA concentrations were kept lower than 100 pM to ensure equilibrium in the presence of excess protein concentrations. […] The amount of DNA bound to the filters was quantitated by measuring the radioactivity of the filters by liquid scintillation counting. The quantity of DNA bound to filters in the absence of protein was used for background correction. […]
[1]The boxed region denotes the conserved sequence element with the predicted stem-loop structure identified in the Family I sequences; vertical lines signify Watson-Crick type base pairing; circles show an uncommon G-T base pair. [2]K_d values were measured by the nitrocellulose filter binding technique described in Example 1. [3]Melting transitions (T_m) were measured in a PCR buffer containing 10 mM Tris-HCl, 50 mM KCl, 2 mM MgCl_2, pH 8.3, at a 1° C./min temperature ramp.

In series [11] the target is T1, Taq DNA polymerase. As to the kind of experiment: FP filter; Tris buffer 55C; 5 pM at 40C; Tricine 4.6 (40C), 36 (55C) pM; IT50 54.8C. As to conditions: tags: rTaq, 94 kDa, Roche Molecular Systems; label: end-labeled. The protocol: as §3, §4
In series [12] the target is T1, Taq DNA polymerase. Description: FP filter; 55C; IT50 44.6C. To be noted: tags: rTaq, 94 kDa, Roche Molecular Systems; label: end-labeled.

T1 sequence (P19821 whole entry, the tested form may be a part, one chain of several): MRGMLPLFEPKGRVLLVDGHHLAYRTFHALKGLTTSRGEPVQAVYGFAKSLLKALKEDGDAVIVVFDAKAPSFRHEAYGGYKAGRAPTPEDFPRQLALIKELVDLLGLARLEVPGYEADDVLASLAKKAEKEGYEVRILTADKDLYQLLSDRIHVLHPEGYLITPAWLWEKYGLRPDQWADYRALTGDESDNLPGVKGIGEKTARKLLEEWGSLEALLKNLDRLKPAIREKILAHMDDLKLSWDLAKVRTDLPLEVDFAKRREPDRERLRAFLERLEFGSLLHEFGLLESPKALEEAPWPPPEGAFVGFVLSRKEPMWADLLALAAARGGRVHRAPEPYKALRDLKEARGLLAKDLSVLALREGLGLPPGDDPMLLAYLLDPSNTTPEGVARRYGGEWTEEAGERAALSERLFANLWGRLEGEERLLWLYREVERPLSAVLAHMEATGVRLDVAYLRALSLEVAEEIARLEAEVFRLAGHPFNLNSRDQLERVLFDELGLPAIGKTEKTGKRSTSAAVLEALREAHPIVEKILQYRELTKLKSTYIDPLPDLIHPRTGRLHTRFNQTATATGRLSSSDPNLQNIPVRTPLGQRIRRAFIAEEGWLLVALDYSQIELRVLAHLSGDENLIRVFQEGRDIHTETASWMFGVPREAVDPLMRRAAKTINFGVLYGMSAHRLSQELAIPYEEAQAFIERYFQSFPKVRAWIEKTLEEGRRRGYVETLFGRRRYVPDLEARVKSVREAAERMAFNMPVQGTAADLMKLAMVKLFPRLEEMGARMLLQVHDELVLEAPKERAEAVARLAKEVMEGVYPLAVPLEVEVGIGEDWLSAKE

B1: ligand 28 (TQH28) (ssDNA)
DNA: TTCTCGGTTGGTCTCTGGCGGAGCAGGAGCAAGAATCATTCTTAGCGTTTTGATTCTTGTGTATGATTCGCTTTTCCC
B1: it took 37 nM to reach half-maximal inhibition with Taq DNA polymerase [1] (IC50). Binding with Taq DNA polymerase [2] was characterised by a dissociation constant (Kd) of 0.0135 nM.

B2: ligand 36 (Taq selection) (ssDNA)
DNA: B1 DNA with G27A
As for B2, in the series with Taq DNA polymerase [3], binding was characterised by a dissociation constant (Kd) of 0.031 nM. That is a picomolar value.

B3: ligand 22 (TQH22) / TZ3 (ssDNA)
DNA: TTCTCGGTTGGTCTCTGGCGGAGCATACACGACGTCATTCTAGCGTTTTGACGTCTTGTGTATGATTCGCTTTTCCC
Regarding B3, the half-maximal inhibitory concentration (IC50) (usually the concentration at which inhibition is half-maximal) with Taq DNA polymerase [4] was determined as 37 nM. Moreover, the dissociation constant Kd (usually the free concentration of one partner at which half of the binding sites on the other are occupied at equilibrium, for simple one-to-one binding) with Taq DNA polymerase [5] amounted to 0.014 nM.

B4: ligand 20 (ssDNA)
DNA: TTCTCGGTTGGTCTCTGGCGGAGCGATCAGACACGAAACATTGCGGACTTTTGTCTTGTGTATGATTCGCTTTTCCC
In the case of B4, the Kd with Taq DNA polymerase [6] stood at 0.105 nM.

B5: ligand 15 (ssDNA)
DNA: TTCTCGGTTGGTCTCTGGCGGAGCATGCACAGCGACATTCTCAGCGTTTTGTCGTCTTGTGTATGATTCGCTTTTCCC
B5: the dissociation constant (Kd) with Taq DNA polymerase [7] amounted to 0.0138 nM.

B6: ligand 19 (ssDNA)
DNA: TTCTCGGTTGGTCTCTGGCGGAGCGAATCGGACATCAAGGGTTCCAGCAGTGCTTCTTGTGTATGATTCGCTTTTCCC
B6: binding with Taq DNA polymerase [8] was characterised by a dissociation constant (Kd) of 0.0112 nM. That is a picomolar value.

B7: ligand 18 (ssDNA)
DNA: TTCTCGGTTGGTCTCTGGCGGAGCATACACGACGTCATTCTAGCGTTTTGTCTTGTGTATGATTCGCTTTTCCC
Molecule B7 registered a dissociation constant (Kd) with Taq DNA polymerase [9] of over 1 nM.

Molecule AAGACCAGACAATGTACAGTATTGGCCTGA (ssDNA, [none]) [Trnc.A-30 (30-mer)] showed a Kd with Taq DNA polymerase [10] of 0.6 nM.

B8: ligand 6 (TQH6) (ssDNA)
DNA: TTCTCGGTTGGTCTCTGGCGGAGCGAATCATACGAAGACATTCCAACGTTTTGTCTTGTGTATGATTCGCTTTTCCC
For B8, the Kd with Taq DNA polymerase [11] was found to be 8.5 pM. Also, the midpoint of inhibition in the series with Taq DNA polymerase [1], the IC50, lay at 30 nM.

B9: ligand 10 (ssDNA)
DNA: TTCTCGGTTGGTCTCTGGCGGAGCGGATCAGACACGAAACATTGCGGACTTTTGTCTTGTGTATGATTCGCTTTTCCC
In the series with Taq DNA polymerase [12], B9 registered a dissociation constant Kd of 0.03 nM.
